Consider one protein from article PMC2193935 (The Journal of Experimental Medicine, 2002).

The data set concerns the molecule itself. In words: SDS-PAGE under non-reducing and reducing conditions with Western blot.

B1: Epo-Fc/IHH (Epo-Fc with three inactivating point mutations in the FcRn-binding site of the Fc domain) (Fc fusion)
chain: APPRLICDSRVLERYILEAKEAENVTMGCAEGPRLSENITVPDTKVNFYAWKRMEVEEQAIEVWQGLSLLSEAILQAQALLANSSQPPETLQLHIDKAISGLRSLTSLLRVLGAQKELMSPPDTTPPAPLRTLTVDTFCKLFRVYANFLRGKLKLYTGEVCRRGDRGGSGGSVPRDCGCKPCICTVPEVSSVFIFPPKPKDVLTATLTPKVTCVVVDISKDDPEVQFSWFVDDVEVHTAQTQPREEQFNSTFRSVSELPIMAQDWLNGKEFKCRVNSAAFPAPIEKTISKTKGRPKAPQVYTIPPPKEQMAKDKVSLTCMITDFFPEDITVEWQWNGQPAENYKNTQPIMNTNGSYFVYSKLNVQKSNWEAGNTFTCSVLHEGLHNAHTEKSLSHSPGK
modifications: glycosylated (oligosaccharides cleaved by PNGase F)
As to B1, the stoichiometry N (usually a count of units in the complex or per binding partner) was 2.
